Test results from patent publication US20230364254A1, “METHODS FOR TREATING CANCERS WITH ANTIBODY DRUG CONJUGATES (ADC) THAT BIND TO 191P4D12 PROTEINS” (priority 2020, published 2023).

Tested on: patients with locally advanced or metastatic urothelial cancer
Assay: Same phase 2 study: safety (adverse events, NCI CTCAE v4.03)
Format: in vivo, human
Excerpt: Safety assessments will be based on the information collected through the safety surveillance process and will include the data from recorded adverse events (AEs) including SAEs, recording of concomitant medication, physical examination findings, cardiac monitoring, and laboratory tests.
The assessment of safety during the course of this study will consist of the surveillance and recording of AEs including SAEs, recording of concomitant medication, and measurements of protocol-specified physical examination findings, cardiac monitoring, and laboratory tests.
AE severity should be graded using the National Cancer Institute's Common Terminology Criteria for Adverse Events (NCI CTCAE), Version 4.03. These criteria are provided in the study manual.
An overview of AEs will provide a tabulation of the incidence of all AEs, treatment-emergent AEs, treatment-related AEs, Grade 3 and higher AEs. SAEs, treatment-related SAEs, deaths, and AEs leading to study treatment discontinuation. Adverse events will be defined as treatment emergent if they are newly occurring or worsened following study treatment.
AEs will be classified by system organ class and preferred tem using the Medical Dictionary for Regulatory Activities (MedDRA) and graded using NCI CTCAE, Version 4.03.
The incidence of AEs will be summarized by system organ class, preferred term, severity and relationship to study drug. In the event of multiple occurrences of the same AE in one patient, the AE will be counted once as the occurrence for the maximum grade. AEs leading to premature discontinuation of study drug will be summarized and listed in the same manner.

[1] = Cohort 1 (N = 125), count (percent)

Q: Which results are given for “enfortumab vedotin: Nectin-4 directed ADC: fully human anti-nectin-4 IgG1 kappa antibody (AGS-22C3) conjugated to MMAE via protease-cleavable maleimidocaproyl valine-citrulline linker”?
A: AE of special interest, All Grade: Hyperglycemia (Cohort 1 (N = 125)): 20 (16) N (%); AE of special interest, All Grade: IRR (Cohort 1 (N = 125)): 8 (6.4) N (%); AE of special interest, All Grade: Ocular Events, Blurred Vision (Cohort 1 (N = 125)): 21 (16.8) N (%); AE of special interest, All Grade: Ocular Events, Corneal Disorders (Cohort 1 (N = 125)): 18 (14.4) N (%); AE of special interest, All Grade: Ocular Events, Dry Eye Disorders (Cohort 1 (N = 125)): 51 (40.8) N (%); AE of special interest, All Grade: Peripheral Neuropathy (Cohort 1 (N = 125)): 70 (56) N (%); AE of special interest, All Grade: Rash (Cohort 1 (N = 125)): 67 (53.6) N (%); AE of special interest, ≥Gr 3: Hyperglycemia (Cohort 1 (N = 125)): 10 (8) N (%); AE of special interest, ≥Gr 3: IRR (Cohort 1 (N = 125)): 1 (0.8) N (%); AE of special interest, ≥Gr 3: Peripheral Neuropathy (Cohort 1 (N = 125)): 5 (4) N (%); AE of special interest, ≥Gr 3: Rash (Cohort 1 (N = 125)): 15 (12.0) N (%); Any TEAEs (Cohort 1 (N = 125)): 125 (100.0) n (%); Any TEAEs leading to death (Cohort 1 (N = 125)): 7 (5.6) n (%); Any TEAEs leading to treatment discontinuation (Cohort 1 (N = 125)): 21 (16.8) n (%); Any grade 3-5 TEAEs (Cohort 1 (N = 125)): 92 (73.6) n (%); Any serious TEAEs (Cohort 1 (N = 125)): 58 (46.4) n (%); SAEs (All): Acute kidney injury (Cohort 1 (N = 125)): 4 (3.2) n (%); SAEs (All): Cellulitis (Cohort 1 (N = 125)): 6 (4.8) n (%); SAEs (All): Diarrhoea (Cohort 1 (N = 125)): 3 (2.4) n (%); SAEs (All): Febrile neutropenia (Cohort 1 (N = 125)): 5 (4.0) n (%); SAEs (All): Nausea (Cohort 1 (N = 125)): 3 (2.4) n (%); SAEs (All): Overall (Cohort 1 (N = 125)): 59 (47.2) n (%); SAEs (All): Pneumonia (Cohort 1 (N = 125)): 3 (2.4) n (%); SAEs (All): Sepsis (Cohort 1 (N = 125)): 4 (3.2) n (%); SAEs (All): Urinary tract infection (Cohort 1 (N = 125)): 6 (4.8) n (%); SAEs (Related): Acute kidney injury (Cohort 1 (N = 125)): 1 (0.8) n (%); SAEs (Related): Cellulitis (Cohort 1 (N = 125)): 2 (1.6) n (%); SAEs (Related): Diarrhoea (Cohort 1 (N = 125)): 1 (0.8) n (%); SAEs (Related): Febrile neutropenia (Cohort 1 (N = 125)): 5 (4.0) n (%); SAEs (Related): Nausea (Cohort 1 (N = 125)): 3 (2.4) n (%); SAEs (Related): Overall (Cohort 1 (N = 125)): 24 (19.2) n (%); Treatment-related AE leading to discontinuation: Asthenia (Cohort 1 (N = 125)): 1 (0.8) n (%); Treatment-related AE leading to discontinuation: Drug eruption (Cohort 1 (N = 125)): 1 (0.8) n (%); Treatment-related AE leading to discontinuation: Enterocolitis (Cohort 1 (N = 125)): 1 (0.8) n (%); Treatment-related AE leading to discontinuation: Fatigue (Cohort 1 (N = 125)): 1 (0.8) n (%); Treatment-related AE leading to discontinuation: Hyperglycaemia (Cohort 1 (N = 125)): 1 (0.8) n (%); Treatment-related AE leading to discontinuation: Interstitial lung disease (Cohort 1 (N = 125)): 1 (0.8) n (%); Treatment-related AE leading to discontinuation: Overall (Cohort 1 (N = 125)): 15 (12.0) n (%); Treatment-related AE leading to discontinuation: Peripheral sensory neuropathy (Cohort 1 (N = 125)): 8 (6.4) n (%); Treatment-related AE leading to discontinuation: Stevens-Johnson syndrome (Cohort 1 (N = 125)): 1 (0.8) n (%); Treatment-related TEAEs (Cohort 1 (N = 125)): 117 (93.6) n (%); Treatment-related TEAEs (all grades): Alopecia (Cohort 1 (N = 125)): 62 (49.6) n (%); Treatment-related TEAEs (all grades): Anaemia (Cohort 1 (N = 125)): 27 (21.6) n (%); Treatment-related TEAEs (all grades): Aspartate aminotransferase increased (Cohort 1 (N = 125)): 17 (13.6) n (%); Treatment-related TEAEs (all grades): Decreased appetite (Cohort 1 (N = 125)): 55 (44.0) n (%); Treatment-related TEAEs (all grades): Diarrhoea (Cohort 1 (N = 125)): 41 (32.8) n (%); Treatment-related TEAEs (all grades): Dry eye (Cohort 1 (N = 125)): 25 (20.0) n (%); Treatment-related TEAEs (all grades): Dry skin (Cohort 1 (N = 125)): 30 (24.0) n (%); Treatment-related TEAEs (all grades): Dysgeusia (Cohort 1 (N = 125)): 47 (37.6) n (%); Treatment-related TEAEs (all grades): Fatigue (Cohort 1 (N = 125)): 62 (49.6) n (%); Treatment-related TEAEs (all grades): Lacrimation increased (Cohort 1 (N = 125)): 21 (16.8) n (%); Treatment-related TEAEs (all grades): Nausea (Cohort 1 (N = 125)): 50 (40.0) n (%); Treatment-related TEAEs (all grades): Neutropenia (Cohort 1 (N = 125)): 13 (10.4) n (%); Treatment-related TEAEs (all grades): Oedema peripheral (Cohort 1 (N = 125)): 15 (12.0) n (%); Treatment-related TEAEs (all grades): Overall (Cohort 1 (N = 125)): 117 (93.6) n (%); Treatment-related TEAEs (all grades): Peripheral sensory neuropathy (Cohort 1 (N = 125)): 50 (40.0) n (%); Treatment-related TEAEs (all grades): Pruritus (Cohort 1 (N = 125)): 32 (25.6) n (%); Treatment-related TEAEs (all grades): Rash maculo-papular (Cohort 1 (N = 125)): 28 (22.4) n (%); Treatment-related TEAEs (all grades): Vomiting (Cohort 1 (N = 125)): 19 (15.2) n (%); Treatment-related TEAEs (all grades): Weight decreased (Cohort 1 (N = 125)): 29 (23.2) n (%); Treatment-related TEAEs leading to death (Cohort 1 (N = 125)): 0 n (%); Treatment-related TEAEs leading to treatment discontinuation (Cohort 1 (N = 125)): 15 (12.0) n (%); Treatment-related TEAEs ≥Grade 3: Acute kidney injury (Cohort 1 (N = 125)): 1 (0.8) n (%); Treatment-related TEAEs ≥Grade 3: Amylase increased (Cohort 1 (N = 125)): 3 (2.4) n (%); Treatment-related TEAEs ≥Grade 3: Anaemia (Cohort 1 (N = 125)): 9 (7.2) n (%); Treatment-related TEAEs ≥Grade 3: Aspartate aminotransferase increased (Cohort 1 (N = 125)): 4 (3.2) n (%); Treatment-related TEAEs ≥Grade 3: Decreased appetite (Cohort 1 (N = 125)): 1 (0.8) n (%); Treatment-related TEAEs ≥Grade 3: Diarrhoea (Cohort 1 (N = 125)): 3 (2.4) n (%); Treatment-related TEAEs ≥Grade 3: Fatigue (Cohort 1 (N = 125)): 8 (6.4) n (%); Treatment-related TEAEs ≥Grade 3: Febrile neutropenia (Cohort 1 (N = 125)): 5 (4.0) n (%); Treatment-related TEAEs ≥Grade 3: Hyperglycaemia (Cohort 1 (N = 125)): 5 (4.0) n (%); Treatment-related TEAEs ≥Grade 3: Hyponatraemia (Cohort 1 (N = 125)): 3 (2.4) n (%); Treatment-related TEAEs ≥Grade 3: Lipase increased (Cohort 1 (N = 125)): 5 (4.0) n (%); Treatment-related TEAEs ≥Grade 3: Neutropenia (Cohort 1 (N = 125)): 10 (8.0) n (%); Treatment-related TEAEs ≥Grade 3: Neutrophil count decreased (Cohort 1 (N = 125)): 3 (2.4) n (%); Treatment-related TEAEs ≥Grade 3: Overall (Cohort 1 (N = 125)): 70 (56.0) n (%); Treatment-related TEAEs ≥Grade 3: Peripheral sensory neuropathy (Cohort 1 (N = 125)): 2 (1.6) n (%); Treatment-related TEAEs ≥Grade 3: Pruritus (Cohort 1 (N = 125)): 2 (1.6) n (%); Treatment-related TEAEs ≥Grade 3: Rash erythematous (Cohort 1 (N = 125)): 4 (3.2) n (%); Treatment-related TEAEs ≥Grade 3: Rash maculo-papular (Cohort 1 (N = 125)): 5 (4.0) n (%); Treatment-related grade 3-5 TEAEs (Cohort 1 (N = 125)): 70 (56.9) n (%); Treatment-related serious TEAEs (Cohort 1 (N = 125)): 24 (19.2) n (%); TEAEs leading to death (excluding disease progression): Acute respiratory failure [1]: 1 (0.8); TEAEs leading to death (excluding disease progression): Cardiac disorder [1]: 1 (0.8); TEAEs leading to death (excluding disease progression): Overall [1]: 4 (3.2); TEAEs leading to death (excluding disease progression): Pneumonia aspiration [1]: 1 (0.8); TEAEs leading to death (excluding disease progression): Sepsis [1]: 1 (0.8); AE of special interest, All Grade: Hyperglycemia (Cohort 2 (N = 89)): 16 (18) N (%); AE of special interest, All Grade: IRR (Cohort 2 (N = 89)): 6 (6.7) N (%)
